The text below walks through data of paper PMC2185075 (The Journal of Cell Biology, 1999).

Common to all, as to assay: two-hybrid
The target in experiment [1] is ASF/SF2, two-hybrid fusion (UniProt Q07955).
Experiment [2] concerns the target SC35, two-hybrid fusion (UniProt Q01130).
Experiment [3] deals with ASF/SF2, two-hybrid fusion (UniProt Q07955). The source holds these as a separate data set.
Experiment [4] deals with SC35, two-hybrid fusion (UniProt Q01130). This is another data set of the same source.
Experiment [5] deals with ASF/SF2, two-hybrid fusion (UniProt Q07955). This is another data set of the same source.
The target is the same in experiment [6]. This is another data set of the same source.
For experiment [7], the target named is SC35, two-hybrid fusion (UniProt Q01130). The source holds these as a separate data set.
The target in experiment [8] is T1, U2AF65ΔRS, two-hybrid fusion (UniProt P26368 66-475).
The target in experiment [9] is T2, U2AF65, two-hybrid fusion (UniProt P26368 1-475).
Experiment [10] addresses T1, U2AF65ΔRS, two-hybrid fusion. The source holds these as a separate data set.
Experiment [11] deals with T2, U2AF65, two-hybrid fusion. The source holds these as a separate data set.

Where two headings read alike, the source gives them in different places.

T1 sequence (P26368 66-475, stated change not applied): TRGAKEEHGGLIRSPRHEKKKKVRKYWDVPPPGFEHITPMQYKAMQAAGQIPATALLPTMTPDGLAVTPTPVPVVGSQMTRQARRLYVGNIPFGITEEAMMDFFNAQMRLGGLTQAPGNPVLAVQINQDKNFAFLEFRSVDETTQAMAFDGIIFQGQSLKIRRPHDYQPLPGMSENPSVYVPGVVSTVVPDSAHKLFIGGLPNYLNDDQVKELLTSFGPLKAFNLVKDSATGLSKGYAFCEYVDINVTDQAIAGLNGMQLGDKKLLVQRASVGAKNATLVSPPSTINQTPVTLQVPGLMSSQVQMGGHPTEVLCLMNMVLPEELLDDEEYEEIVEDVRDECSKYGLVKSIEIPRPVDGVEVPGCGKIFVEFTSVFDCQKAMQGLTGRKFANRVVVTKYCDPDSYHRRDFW
Chain of SC35, two-hybrid fusion (Q01130 whole entry, the tested form may be a part): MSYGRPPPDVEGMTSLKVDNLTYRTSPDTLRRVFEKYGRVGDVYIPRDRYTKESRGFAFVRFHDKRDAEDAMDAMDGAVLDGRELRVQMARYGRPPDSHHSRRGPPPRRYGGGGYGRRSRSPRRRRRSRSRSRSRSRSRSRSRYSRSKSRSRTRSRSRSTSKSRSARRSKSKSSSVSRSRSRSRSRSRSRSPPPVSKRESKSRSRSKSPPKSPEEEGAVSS
Chain of ASF/SF2, two-hybrid fusion (Q07955 whole entry, the tested form may be a part): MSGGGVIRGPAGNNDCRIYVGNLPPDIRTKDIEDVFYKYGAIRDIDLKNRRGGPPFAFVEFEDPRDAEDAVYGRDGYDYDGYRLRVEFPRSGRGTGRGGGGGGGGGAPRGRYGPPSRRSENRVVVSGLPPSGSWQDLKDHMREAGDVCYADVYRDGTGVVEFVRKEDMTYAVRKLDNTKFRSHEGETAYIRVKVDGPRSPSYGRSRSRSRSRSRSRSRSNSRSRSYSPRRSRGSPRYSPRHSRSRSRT
T2 sequence (P26368 whole entry, the tested form may be a part, one chain of several): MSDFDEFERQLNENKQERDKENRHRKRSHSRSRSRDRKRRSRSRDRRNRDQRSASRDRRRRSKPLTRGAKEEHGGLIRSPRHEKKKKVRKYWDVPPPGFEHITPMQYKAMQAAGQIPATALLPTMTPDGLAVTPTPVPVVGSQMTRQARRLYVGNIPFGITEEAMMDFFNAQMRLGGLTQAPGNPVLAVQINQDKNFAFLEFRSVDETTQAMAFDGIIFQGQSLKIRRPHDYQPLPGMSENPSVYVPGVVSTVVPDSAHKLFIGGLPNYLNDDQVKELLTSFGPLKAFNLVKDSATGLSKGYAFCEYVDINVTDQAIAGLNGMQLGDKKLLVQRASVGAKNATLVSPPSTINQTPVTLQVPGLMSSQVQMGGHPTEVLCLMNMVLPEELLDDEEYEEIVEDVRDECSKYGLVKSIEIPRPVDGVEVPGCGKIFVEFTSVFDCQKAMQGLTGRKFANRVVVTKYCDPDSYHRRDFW

With “U1-70K, two-hybrid fusion (from UniProt P08621 1-437) (natural protein; other documents disagree on this pair)”, the percentage of the maximal two-hybrid interaction (β-galactosidase) came out at 100% in experiment [1]; 104% in the experiment with SC35, two-hybrid fusion [2]; 98% in [3]; 86% with SC35, two-hybrid fusion [4]; 35% in experiment [5]; 100% in [6]. Moreover, in the experiment with SC35, two-hybrid fusion [7], the percentage of the maximal two-hybrid interaction (β-galactosidase) is 100%.

B1: U2AF35, two-hybrid fusion (natural protein)
chain: MAEYLASIFGTEKDKVNCSFYFKIGACRHGDRCSRLHNKPTFSQTIALLNIYRNPQNSSQSADGLRCAVSDVEMQEHYDEFFEEVFTEMEEKYGEVEEMNVCDNLGDHLVGNVYVKFRREEDAEKAVIDLNNRWFNGQPIHAELSPVTDFREACCRQYEMGECTRGGFCNFMHLKPISRELRRELYGRRRKKHRSRSRSRERRSRSRDRGRGGGGGGGGGGGGRERDRRRSRDRERSGRF
As to B1, the “two-hybrid β-galactosidase, fold over background (empty prey vector)” value in [8] was 340 fold over background.

B2: U2AF35ΔRS, two-hybrid fusion (domain or fragment)
chain: MAEYLASIFGTEKDKVNCSFYFKIGACRHGDRCSRLHNKPTFSQTIALLNIYRNPQNSSQSADGLRCAVSDVEMQEHYDEFFEEVFTEMEEKYGEVEEMNVCDNLGDHLVGNVYVKFRREEDAEKAVIDLNNRWFNGQPIHAELSPVTDFREACCRQYEMGECTRGGFCNFMHLKPISRELRRELYGRRR
Take B2: the “two-hybrid β-galactosidase, fold over background (empty prey vector)” value in [8] is 347 fold over background; in experiment [9], 308 fold over background; in experiment [10] it was 460 fold over background; in experiment [11], 93 fold over background.
